Source: patent US20190201487

Molecular target: T1, neonatal NET-Inhibitory Factor (nNIF)
T1 chain: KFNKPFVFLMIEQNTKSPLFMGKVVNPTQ

B1: neutrophil elastase (NE) (protein)
chain: IVGGRRARPHAWPFMVSLQLRGGHFCGATLIAPNFVMSAAHCVANVNVRAVRVVLGAHNLSRREPTRQVFAVQRIFENGYDPVNLLNDIVILQLNGSATINANVQVAQLPAQGRRLGNGVQCLAMGWGLLGRNRGIASVLQELNVTVVTSLCRRSNVCTLVRGRQAGVCFGDSGSPLVCNGLIHGIASFVRGGCASGLYPDAFAPVAQFVNWIDSIIQ
**Q.** With B1 as the protein, how does the “NE enzyme activity in vitro (cleavage of (MeOSuc)-AAPV-(pNA))” value read?
**A.** Its value is “neither nNIF nor CRISPP inhibited NE activity”.
